Assay results: patent publication US20190161754A1, “FLUORESCENT BIOSENSOR FOR 2', 3'-CGAMP” (The Regents of the University of California, priority 2016, published 2019)
Where a chain is given by its changes, count along the chain named. Numbers in names are those of the source. Starred links: 1 amine or outer side, 2 acyl side, 3 side chain; linkers in the order of their positions; H or OH if unused. Positions of bridges follow the written chain, without caps; N, C: chain ends. Non-standard residues stand in square brackets, D forms with d. Residues, ends and D or L forms follow the SMILES beside them. Chains are numbered I, II in the order given. Actinocin(9to1) = Cc1c2oc3c(C)ccc(C(=O)[*:1])c3nc-2c(C(=O)[*:2])c(N)c1=O; NMeV = CN[C@H](C(=O)O)C(C)C; Sar = CNCC(=O)O

B1: Bh P1-5delC: Bh GEMM-II riboswitch fused to Spinach2 via 5 base-paired P1 stem with deletion of a single C, SEQ ID NO: 16 (nucleic acid)
chain: GATGTAACTGAATGAAATGGTGAAGGACGGGTCCAATAGGGAAGCAACGAAGCATAGCCTTTATATGGACACTTGGGTTATGTGGAGCTACTAGTGTAACCGGCCCTCTTTGTTGAGTAGAGTGTGAGCTCCGTAACTAGTTACATC
modifications: synthetic nucleic acid
B2: Bh P1-6 WT: GEMM-II riboswitch (Bacillus halodurans C-125)-Spinach2 biosensor, 6 base-paired P1 stem, SEQ ID NO: 12 (nucleic acid)
chain: GATGTAACTGAATGAAATGGTGAAGGACGGGTCCAAATAGGGAAGCAACGAAGCATAGCCTTTATATGGACACTTGGGTTATGTGGAGCTACTAGTGTAACCGGCCCTCCTTTTGTTGAGTAGAGTGTGAGCTCCGTAACTAGTTACATC
modifications: synthetic nucleic acid
B3: Bh P1-6 G103A: Bh P1-6 biosensor with G103A mutation in the binding pocket, SEQ ID NO: 18; G73A in b172, b180 likely the same (nucleic acid)
chain: B2 chain with G103A
modifications: synthetic nucleic acid
notes: G73A, b180 likely the same

Experiments:
Spinach2 aptamer = assay: Fluorescence of dye-binding Spinach2 aptamer in presence of quinacrine (control); settings: dose-dependent (FIG. 10)
Description: FIG. 10 illustrates dose-dependent loss of fluorescence in presence of QC for both the 2′, 3′-cGAMP biosensor and Spinach2 aptamer.
Quinacrine is a DNA intercalator that may disrupt biosensor function by intercalating into the RNA helices.

cGAS [1] = settings: radiolabeled TLC assay, Gray et al. 2015; cited from earlier work
cGAS [2] = biological target: T1, cGAS (Homo sapiens, UniProt Q8N884); assay: cGAS inhibition assay read out by RNA-based fluorescent biosensor; assay type: biochemical; design: implied by Ni-NTA capture and imidazole elution; made in house; host or cells: BL21-RIL DE3 E. coli; settings: decrease of signal independent of enzyme activity, called artefactual, read-out: apparent IC50
T1 sequence (Q8N884 whole entry): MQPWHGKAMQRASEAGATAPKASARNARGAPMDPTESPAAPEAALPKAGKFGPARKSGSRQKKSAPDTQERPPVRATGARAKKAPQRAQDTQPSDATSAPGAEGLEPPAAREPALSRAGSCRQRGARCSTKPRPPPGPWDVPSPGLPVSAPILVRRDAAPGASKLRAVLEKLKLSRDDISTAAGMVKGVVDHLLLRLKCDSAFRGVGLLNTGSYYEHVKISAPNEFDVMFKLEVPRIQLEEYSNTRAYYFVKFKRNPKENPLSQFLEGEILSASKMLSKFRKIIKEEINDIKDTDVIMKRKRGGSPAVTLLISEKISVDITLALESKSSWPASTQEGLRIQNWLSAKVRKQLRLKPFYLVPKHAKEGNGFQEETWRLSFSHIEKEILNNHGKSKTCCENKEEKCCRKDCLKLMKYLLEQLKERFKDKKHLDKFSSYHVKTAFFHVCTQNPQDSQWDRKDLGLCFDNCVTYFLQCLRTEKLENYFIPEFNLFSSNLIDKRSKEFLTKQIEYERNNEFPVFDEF
Procedure: To initiate the enzyme reaction, 0.5 μL of HT-DNA was added to 2.5 μL of 6× enzyme reaction solution containing cGAS, GTP, ATP and cGAS reaction buffer. Generally, final concentrations are 100m/mL HT-DNA, 1.5 μM cGAS, 200 μM GTP, 200 μM ATP, and cGAS reaction buffer (40 mM Tris-HCl (pH 7.5), 100 mM NaCl, 10 mM MgCl2). The reaction was incubated at 37° C. for 2 hours to allow the enzyme reaction to proceed. […] To initiate the fluorescent biosensor reaction, 3 μL of the enzyme reaction was added to 27 μL of biosensor reaction solution containing renatured RNA, DFHBI (or DFHBI-1T), and biosensor activation buffer. Final concentrations are 200 nM RNA, 10 μM DFHBI (or DFHBI-1T), 40 mM HEPES, pH 7.5, 125 mM KCl, 10 mM MgCl2, and 0.1×cGAS reaction buffer (40 mM Tris-HCl (pH 7.5), 100 mM NaCl, 10 mM MgCl2). […] For the inhibition assay, due to the fluorescence of Quinacrine dihydrochloride, DFHBI-1T was used instead. Samples containing only Quinacrine dihydrochloride of varied concentration in the buffer were used for background fluorescence subtraction.

cGAS [3] = biological target: T1, cGAS; assay: Thin-layer chromatography based (radiolabeled TLC) cGAS activity assay with DNA intercalators; assay type: biochemical; design: DNA-dependent human cGAS activity was assayed with recombinant full-length cGAS and HT-DNA; implied by Ni-NTA capture and imidazole elution; made in house; host or cells: BL21-RIL DE3 E. coli; settings: 100 μM concentration
Procedure: Quinacrine intercalation can lengthen the B-form DNA helix but otherwise would not grossly alter conformation (Hossain et al., (2008). DNA intercalation by quinacrine and methylene blue: a comparative binding and thermodynamic characterization study. DNA Cell Biol 27, 81-90). To support the proposed mechanism of action, other DNA intercalators were tested for effects on cGAS activity. The radiolabeled TLC assay was employed in order to avoid possible complications in data interpretation from compounds interacting with the RNA biosensor. […] Importantly, the enzyme-independent effect of compounds on fluorescence of the RNA biosensors can easily be analyzed in control reactions, which allows one to distinguish compounds in the screen that likely interact with the DNA instead of the enzyme directly.
DNA-dependent human cGAS activity was assayed with recombinant full-length cGAS and HT-DNA (Sigma-Aldrich, St Louis, Mo.). cGAS (estimated final concentration 1.5 μM) or equal volumes of water were incubated with HT-DNA (final concentration 0.1 mg/ml) in the presence of 250 μM ATP and GTP and [a-32P] ATP or GTP (˜30 nM) as indicated. All reactions included 100 mM NaCl, 10 mM MgCl2, 40 mM Tris-HCl (pH 7.5), and reactions were incubated at 37° C. for 1.5 hr. Reactions were terminated with the addition of 5 U of alkaline phosphatase (New England Biolabs) and incubation at 37° C. for 30 min. One microliter of each reaction was spotted onto a PEI-Cellulose F thin-layer chromatography plate (EMD Millipore), and reaction products were separated with the use of 1.5 M KH2PO4 (pH 3.8) as solvent. Plates were dried and radiolabeled products were detected with a phosphor screen and the Typhoon phosphorimager (GE Life Sciences).

[4] = In vitro fluorescence assay of GEMM-II riboswitch-based biosensors with c-di-GMP (binding affinity, turn-on); settings: for Kd: ligand c-di-GMP; for fold turn-on: 100 nM RNA, 100 μM c-di-GMP
Procedure: (§1) In vitro fluorescence assays were carried out in a buffer containing 40 mM HEPES, pH 7.5, 125 mM KCl. Other conditions, including temperature, concentrations of MgCl2, DFHBI (or DFHBI-1T), ligand (or cell extract) and RNA were varied in different experiments and are indicated in the figures. The RNA was renatured in buffer at 70° C. for 3 min and cooled to ambient temperature for 5 min prior to addition to the reaction solution. DFHBI (or DFHBI-1T) was added to a solution containing buffer and ligand, and then RNA was added at the end before fluorescence measurement. Binding reactions were performed either in 100 μL volumes (96-well plate) or 30 μL (384-well plate) and were incubated at the indicated temperature in either a Corning Costar 3915 96-well black plate or Greiner 781077 384-well black plate until equilibrium was reached, which typically takes 30 to 60 minutes. The fluorescence emission was measured using a Molecular Devices SpectraMax Paradigm Multi-Mode detection platform plate reader (Sunnyvale, Calif.) with the following instrument parameters (for DFHBI): 448 nm excitation, 506 nm emission. In case of DFHBI-1T 470 nm excitation and 510 nm emission was used.
(§2) To measure the binding affinities of 2′, 3′-cGAMP biosensors, fluorescence assays were performed with the following conditions: 37° C., 3 mM MgCl2, 200 nM RNA, and 10 μM DFHBI. The 2′, 3′-cGAMP concentration (ccGAMP) was varied, and the fluorescence of the sample with DFHBI but no RNA was subtracted as background to determine relative fluorescence units. The ratio between the fraction of biosensor that is bound by 2′, 3′-cGAMP and the total 2′, 3′-cGAMP biosensor concentration is given as:
(§3) where Fmin is the fluorescence of the sample containing no 2′,3′-cGAMP, while Fmax is the fluorescence of the sample containing highest concentration of 2′,3′-cGAMP (100 μM). The dissociation constants Kd were determined by least squares fitting to the following equation in Graphpad Prism software: […]

[5] = In vitro fluorescence assay of GEMM-II riboswitch-based biosensors with 2′,3′-cGAMP (binding affinity, turn-on); settings: for fold turn-on / Kd: 200 nM RNA; for fold turn-on: 100 μM 2′,3′-cGAMP; for Kd: ligand 2′,3′-cGAMP, 37° C., 3 mM Mg2+, 10 μM DFHBI, read-out: Kd (apparent dissociation constant)
Procedure: as §1, §2, §3

[6] = In vitro fluorescence assay of GEMM-II riboswitch-based biosensors with 3′,3′-cGAMP (binding affinity, turn-on); settings: for fold turn-on: 100 nM RNA, 100 μM 3′,3′-cGAMP; for Kd: ligand 3′,3′-cGAMP
Procedure: as §1, §2, §3

E. coli BL21-Star cells = assay: In vivo fluorescence assay by flow cytometry, biosensor co-expressed with cyclic dinucleotide synthases (WspR, DncV, cGAS); settings: live E. coli, DFHBI-1T, DncV or cGAS co-expressed

Row | Molecule | inhibition of cGAS activity (cGAS [3]) | Kd [4] | fold turn-on [5] | Kd [5] | fold turn-on [4] | fold turn-on [6] | Kd [6] | further results
1 | CCN(CC)CCCC(C)Nc1c2ccc(Cl)cc2nc2ccc(OC)cc12 (centres unmarked) [Quinacrine] | fully inhibited | – | – | – | – | – | – | effect on fluorescence of Spinach2 aptamer (Spinach2 aptamer): decreased fluorescence; IC50 (cGAS [1]): 13 µM; IC50 (cGAS [2]): 39 ± 7 µM
2 | CN(C)c1ccc2nc3ccc(=[N+](C)C)cc-3sc2c1 [methylene blue] | no effect | – | – | – | – | – | – | –
3 | Cc1c2oc3c(C)ccc(C(=O)N[C@@H]4C(=O)N[C@H](C(C)C)C(=O)N5CCC[C@H]5C(=O)N(C)CC(=O)N(C)[C@@H](C(C)C)C(=O)O[C@@H]4C)c3nc-2c(C(=O)N[C@@H]2C(=O)N[C@H](C(C)C)C(=O)N3CCC[C@H]3C(=O)N(C)CC(=O)N(C)[C@@H](C(C)C)C(=O)O[C@@H]2C)c(N)c1=O [Actinomycin D] (I: T[dV]P[Sar][NMeV] / II: T[dV]P[Sar][NMeV]; ester I:1-I:C, II:1-II:C; linker I:N-II:N via Actinocin(9to1)) | partial inhibition | – | – | – | – | – | – | –
4 | B1 | – | 21 ± 8 nM | (5.1x) fold | 13.4 ± 0.9 µM | – | – | – | –
5 | B2 | – | 56 nM | – | – | (13.1x) fold | (10.8x) fold | > 11 µM | fluorescence activation with c-di-GMP ([4]; FIG. 17, panel B screen): 5 fold; Kd ([6]; listed as wild-type Bh P1-6): > 10 µM; fluorescence response to 2′,3′-cGAMP (in words) ([5]; 20 μM ligand): no response
6 | B3 | – | > 7400 nM | (10.3) fold | > 65 µM | (8.2x) fold | (9.6x) fold | 0.8 µM | reduction of binding affinity to c-di-GMP relative to wild-type Bh P1-6 ([4]; G103A versus wild-type): more than 125 fold; increase of binding affinity to 3′,3′-cGAMP relative to wild-type Bh P1-6 ([6]; G103A versus wild-type): more than 10 fold; fluorescence activation in response to 2′,3′-cGAMP ([5]; 200 nM biosensor, 20 μM ligand): 5 fold; cellular fluorescence activation upon co-expression of each enzyme (E. coli BL21-Star cells): Significant fluorescence activation
